Here are results for 2 molecules from US20190092846A1.

As usually defined, the Kd is the concentration at which binding is half-saturated.

Some results are limits rather than exact numbers.

For experiment [1], the target named is T1, mouse recombinant TGF-β2 (mouse) (UniProt P27090).
T1 sequence (looked up): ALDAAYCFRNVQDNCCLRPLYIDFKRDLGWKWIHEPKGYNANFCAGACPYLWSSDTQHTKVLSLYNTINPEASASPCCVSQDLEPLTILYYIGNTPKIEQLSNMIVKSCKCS

Experiment [2] has as its target human TGF-β1 (human) (UniProt P01137). As to the kind of experiment: cell-based or functional assay.
In experiment [3] the target is T2, human TGF-β3 (human) (UniProt P10600).
T2 sequence: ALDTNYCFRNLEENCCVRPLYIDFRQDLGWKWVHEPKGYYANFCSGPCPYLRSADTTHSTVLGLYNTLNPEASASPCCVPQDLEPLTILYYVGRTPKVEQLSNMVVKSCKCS
As to the kind of experiment: cell-based or functional assay.

Experiment [4] deals with T3, human recombinant TGF-β2 (human).
T3 sequence: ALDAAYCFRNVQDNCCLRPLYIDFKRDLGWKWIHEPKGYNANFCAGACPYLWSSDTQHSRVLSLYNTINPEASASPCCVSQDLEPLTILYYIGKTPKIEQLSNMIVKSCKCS
The experiment can be described thus: cell-based or functional assay.

Experiment [5] concerns the target T1, mouse recombinant TGF-β2 (mouse). The experiment can be described thus: cell-based or functional assay.
Experiment [6] has as its target T3, human recombinant TGF-β2 (human). As to the kind of experiment: ratio of the KD values of Table 4.
The target in experiment [7] is T2, human TGF-β3 (human). As to the kind of experiment: BiaCORE (surface plasmon resonance).
For experiment [8], the target named is T3, human recombinant TGF-β2 (human). The experiment can be described thus: BiaCORE (surface plasmon resonance).

Sequence of human TGF-β1 (human) (P01137 279-390 limits assumed): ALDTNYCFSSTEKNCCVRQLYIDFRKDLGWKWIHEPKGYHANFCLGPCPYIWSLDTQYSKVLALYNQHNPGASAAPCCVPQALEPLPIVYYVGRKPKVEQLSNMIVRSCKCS

B1: CAT-152 (antibody, INN chains, looked up, human IgG4, V domains shown)
VH: EVQLVESGGGVVQPGRSLRLSCAASGFTFSSYGMHWVRQAPGKGLEWVAVIWYDGSNKYYADSVKGRFTISRDNSKNTLYLQMDSLRAEDTAVYYCGRTLESSLWGQGTLVTVSS
VL: SSELTQDPAVSVALGQTVRITCQGDSLRSYYASWYQQKPGQAPVLVIYGKNNRPSGIPDRFSGSSSGNTASLTITGAQAEDEADYYCNSRDSSSTHRGVFGGGTKLTVL
For B1, in experiment [1], the IC50 (read off the curve) (CAGA-12 luciferase reporter gene assay, HEK293T/17) was determined as 0.3 nM. The RGA (CAGA-12 luc/Smad-2/3 RGA; IC 50 [pM]) in experiment [2] is greater than 100000 pM; in experiment [3], 1230 pM; in experiment [4], 26 pM; in experiment [5] it was 298 pM. Besides, the fold lower KD for TGFβ2 than for TGFbeta 3 in experiment [6] is 16 fold. The dissociation constant Kd in experiment [7] was found to be 1.18 nM; in experiment [8] it was 0.073 nM.

B2: 1D11 (antibody, from another filing, V domains shown)
VH: QVQLQQSGPELVRPGASVKLSCKASGYIFITYWMNWVKQRPGQGLEWIGQIFPASGSTNYNEMFEGKATLTVDTSSSTAYMQLSSLTSEDSAVYYCARGDGNYALDAMDYWGQGTSVTVSS
VL: DIVLTQSPASLAVSLGQRATISCRASESVDSYGNSFMHWYQQKSGQPPKLLIYLASNLESGVPARFSGSGSRTDFTLTIDPVEADDAATYYCQQNNEDPLTFGAGTKLEIK
Consider B2, for which the RGA (CAGA-12 luc/Smad-2/3 RGA; IC 50 [pM]) in experiment [5] is greater than 100000 pM.
